Columns and labels:
[1] = system: MS2 coat protein; experiment: apparent KD of MS2 coat protein; designed switch direction (-1 OFF switch, 1 ON switch): 1; higher = weaker reporter binding
How it was run: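 Apparent KD, taken as the median over clusters for each design, was obtained by curve-fitting normalised cluster fluorescence. Designed RNA switches had been transcribed on Illumina chips by stalled E. coli RNA polymerase and titrated with SNAP-549-labelled MS2 coat protein, doubling from 0.7 or 1.5 nM to 3 µM.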

[2] = system: MS2 coat protein; experiment: apparent KD of MS2 coat protein; higher = weaker reporter binding; conditions: Eterna round: R107
How it was run: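 Illumina sequencing clusters were used for on-chip transcription of designed RNA switches. Titration with SNAP-549-labelled MS2 coat protein followed, in twofold steps from 0.7 or 1.5 nM to 3 µM in 100 mM Tris-HCl pH 7.5, 80 mM KCl, 4 mM MgCl2, without or with constant ligand. Apparent KD is each design's median of fits to normalised cluster binding curves.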

[3] = input ligand: microRNA oligo, concentration not stated
[4] = Eterna round: R95, input ligand: FMN 200 uM
[5] = Eterna round: R95, input ligand: microRNA oligo, concentration not stated
[6] = Eterna round: R95, input ligand: none
[7] = input ligand: theophylline 20 uM
[8] = input ligand: theophylline 2 mM
[9] = input ligand: tryptophan 2.4 mM

Sequence | apparent KD of MS2 coat protein ([2]; input ligand: arginine 13.2 mM) | apparent KD of MS2 coat protein ([2]; input ligand: none) | apparent KD of MS2 coat protein [2, 7] | apparent KD of MS2 coat protein [2, 8] | apparent KD of MS2 coat protein [2, 9] | further results
AAAAAACAUGAGGAUCACCCAUGUAAAAAAAUGGGAGGAUAUCUGAAUUAAUUAAAUUAAGGAGAAGGCCUAAAAA [71%, Same state of confusion2, 4] (Eterna round: R96, puzzle: Same State 1) | – | – | – | – | – | apparent KD of MS2 coat protein [1, 3]: 192 nM
AAAAGAAACACAGGAUAUACCGCGCUUAACGCGGUAGAAGGGUGGGACAUGAGGAUCACCCAUGUGGCCUGAGCGCCAGGCCGC [Uszadi] (Eterna round: R96, puzzle: Same State NG 1) | – | – | – | – | – | apparent KD of MS2 coat protein ([1]; input ligand: FMN 200 uM): 428 nM; apparent KD of MS2 coat protein [1, 3]: 14.1 nM; apparent KD of MS2 coat protein ([1]; input ligand: none): 299 nM
AAAAUGCGGGAAGGAUAUGGGAAAGGAAGUGUACCAGAAGGUCUCGCGGCCAAGGACAUGAGGAUCACCCAUGUUAACGCCCGA [PowerStrip SSNG 1.8] (Eterna round: R96, puzzle: Same State NG 1) | – | – | – | – | – | apparent KD of MS2 coat protein ([1]; input ligand: FMN 200 uM): 204 nM; apparent KD of MS2 coat protein [1, 3]: 43.4 nM; apparent KD of MS2 coat protein ([1]; input ligand: none): 40.8 nM
AAAAUUUCUGCACAGGAUAUGUAGUGUUUCACAUGAGGAUCACCCAUGUCAAAACCAGAGACUGUACAGAAGGGUGCGGUCGGAC [Onedxequ] (puzzle: Same State 2) | – | – | – | – | – | apparent KD of MS2 coat protein [1, 4]: 15.8 nM; apparent KD of MS2 coat protein [1, 5]: 10.3 nM; apparent KD of MS2 coat protein [1, 6]: 14.6 nM
AAACGACACACAGGAUAUCCGCCAUGCAGGCUCGGAGAAGGGUGUGAAACAUGAGGAUCACCCAUGUAGUCAAAAUAAUAAAGA [Arardixequ] (Eterna round: R96, puzzle: Same State NG 1) | – | – | – | – | – | apparent KD of MS2 coat protein ([1]; input ligand: FMN 200 uM): 47 nM; apparent KD of MS2 coat protein [1, 3]: 62.9 nM; apparent KD of MS2 coat protein ([1]; input ligand: none): 58.9 nM
AACAAUCUAUCUGAGGAUAUCAUGAAAUAAACAUGAGGAUCACCCAUGUGCAGGAAAACUGCAUAUGAGAAGGCAGAUAGUUUGA [salish99_ss2_r3_056] (puzzle: Same State 2) | – | – | – | – | – | apparent KD of MS2 coat protein [1, 4]: 47.5 nM; apparent KD of MS2 coat protein [1, 5]: 716 nM; apparent KD of MS2 coat protein [1, 6]: 855 nM
AACAAUCUAUCUGAGGAUAUCAUGAAAUAAACAUGAGGAUCACCCAUGUGCAGGAAAACUGCAUAUGAGAAGGCAUAUAGAUUGA [salish99_ss2_r3_052] (puzzle: Same State 2) | – | – | – | – | – | apparent KD of MS2 coat protein [1, 4]: 63.7 nM; apparent KD of MS2 coat protein [1, 5]: 465 nM; apparent KD of MS2 coat protein [1, 6]: 1560 nM
AACAAUCUAUCUGAGGAUAUCAUGAAAUAAACAUGAGGAUCACCCAUGUGCAGGAAAACUGCAUUUGAGAAGGCAGAUAGAUUGA [salish99_ss2_r3_048] (puzzle: Same State 2) | – | – | – | – | – | apparent KD of MS2 coat protein [1, 4]: 14.6 nM; apparent KD of MS2 coat protein [1, 5]: 106 nM; apparent KD of MS2 coat protein [1, 6]: 67.2 nM
AACAAUCUAUCUGAGGAUAUCAUGAAAUAAACAUGAGGAUCACCCAUGUGCAGGAAAAUUGCAUAUGAGAAGGCAGAUAGAUUGA [salish99_ss2_r3_044] (puzzle: Same State 2) | – | – | – | – | – | apparent KD of MS2 coat protein [1, 4]: 37.9 nM; apparent KD of MS2 coat protein [1, 5]: 771 nM; apparent KD of MS2 coat protein [1, 6]: 669 nM
AACAAUCUAUCUGAGGAUAUCAUGUCAAAGACAUGAGGAUCACCCAUGUUGCAGGAAACUGCUCAUGAGAAGGCAGAUAGAUUGA [SS2: 1129] (Eterna round: R96, puzzle: Same State 2) | – | – | – | – | – | apparent KD of MS2 coat protein ([1]; input ligand: FMN 200 uM): 41 nM; apparent KD of MS2 coat protein [1, 3]: 329 nM; apparent KD of MS2 coat protein ([1]; input ligand: none): 385 nM
AACAUGAGGAUCACCCAUGUGGAAUACUGAAGCAGCUCAGGGAAGGAUAUGGUUGACACCCUCGACCAGAAGGUCCAAAUUAAA [Onarar] (Eterna round: R96, puzzle: Same State NG 3) | – | – | – | – | – | apparent KD of MS2 coat protein ([1]; input ligand: FMN 200 uM): 63.3 nM; apparent KD of MS2 coat protein [1, 3]: 98.2 nM; apparent KD of MS2 coat protein ([1]; input ligand: none): 121 nM
AACUUACUAUCUCAGGAUAUCAUGUCAAAGACAUGAGGAUCACCCAUGUACCAGGAAACUGGUUAUGAGAAGGGAGAUAGUAAGA [Mat - Same State 2 - Mod - D49] (puzzle: Same State 2) | – | – | – | – | – | apparent KD of MS2 coat protein [1, 4]: 167 nM; apparent KD of MS2 coat protein [1, 5]: 128 nM; apparent KD of MS2 coat protein [1, 6]: 611 nM
UGUAUGUGAUCUGAUACCAGAGUGAAUAAACCUGAGGAUCACCCUGGUAGGCGAAAGCCACUCCCUUGGCAGCAGAUCGCAUACU | 102 nM | 139 nM | 112 nM | 38.6 nM | 141 nM | –
UGUAUGUGAUCUGAUACCAGAGUUGAUAAUCUGAGGAUCACCCUGGUAAGGCGAAAGCCACUCCCUUGGCAGCAGAUCGCAUACU | 106 nM | 306 nM | 874 nM | 175 nM | 725 nM | –
UGUAUGUGAUCUGAUACCAGCCUCAUAACUUGAGGAUCACCCAAGUGGAGCGGAAACGCUGGCCCUUGGCAGCAGAUCGCAUACU [TheoBS 2 #AlternativeMS2] | 205 nM | 460 nM | 200 nM | 15.3 nM | 556 nM | –
UGUAUGUGAUCUGAUACCAGUCCAACUGGUAAAACUUGAGGAUCACCCAGGUAAAAUUGGGACCCUUGGCAGCAGAUCGCAUACU | 150 nM | 316 nM | 597 nM | 129 nM | 705 nM | –
UGUCAGCGAAAGUUGACAUGUCUUGCUGGUCGAGGACCGGUACGGCCGCCACUCGAUCUCUCGCACAUGAGGAUCACCCAUGUUG [SS Tryp A #23] | 13.9 nM | – | 14.4 nM | 13.9 nM | – | –

Sequence | apparent KD of MS2 coat protein ([2]; input ligand: arginine 13.2 mM) | apparent KD of MS2 coat protein ([2]; input ligand: none) | apparent KD of MS2 coat protein [2, 7] | apparent KD of MS2 coat protein [2, 8] | apparent KD of MS2 coat protein [2, 9] | further results
UGUGUGUGACCAGGAAAUGGUCACACACAGCGAGGACCGGUACGGCCGCCACUCGGCCGUACAUGAGGAUCACCCAUGUCGGGUA [#1 Same State - Tryptophan A Attempt #9 (HarryS)] | 99.6 nM | – | 961 nM | 1290 nM | – | –
UGUUUGGUGCGCGAGUGUUGGAUAAUUGAUACCAGUGAAGAAGAGCGCCCUUGGCAGCGAAUCCUAACAUGAGGAUCACCCAUGU [5.U] | 41.5 nM | 39.7 nM | 84.8 nM | 51.7 nM | 39 nM | –
UUAAGAGGCUAUCCACUUUGAUUUUGUGAUACCAGAAUAAUUUUAUUCCCUUGGCAGCAUGACAUGAGGAUCACCCAUGUGUCUU [SSTheo A #3] | 31.4 nM | – | 46.5 nM | – | 36.9 nM | –
UUAAUCUAUGAAGAAAACUUUAUAGCAGAAGGAGCGUGAUAAAACACAGGUAGGUCGCUGAAGGGAACAUGAGGAUCACCCAUGU [AstrosSSArgA#19] | 23.7 nM | 22.7 nM | 36.7 nM | 31.1 nM | 26.5 nM | –
UUAAUUAUAUAUUAUUUAAUAUUUACAGAAGGAGCGUGAUAAAACACAGGUAGGUCGCUGAAGGGAACAUGAGGAUCACCCAUGU [AstrosSSArgA#20] | 28.6 nM | 28.9 nM | 41.6 nM | 60.1 nM | 38.9 nM | –
UUACACAUGAGGAUCACCCAUGUCUGGGAGCGAGGACCGGUACGGCCGCCACUCGAAUUGUCAGGGCUAUGCCGGACGAUGCAUC [theeternabot_sameState_MS2_Trp_A_20] | 20.6 nM | – | 23.5 nM | 25 nM | – | –
UUAUAAGUACCGGUCCUCAGAUCCUCAUGACGAGGACCGGUACGGCCGCCACUCGAAACAUGAGGAUCACCCAUGUAAUAAUAAC [Brourdmod04] | 23.3 nM | – | 92.1 nM | 37.7 nM | – | –
UUAUGAUGUUCCGAUACCAGCCAUGUAGUUCUAACUUAACAUGAGGAUCACCCAUGUACCGGCCCUUGGCAGCGGAUGUGGAUUA [#22Same State - Theophylline B] | 27 nM | 23.4 nM | 29.3 nM | 14.8 nM | 23.7 nM | –
UUAUUUAACGGAAGGAGCGCGGAUAAAAUAGUGGGUAAACAUGAGGAUCACCCAUGUAAACCGCAGGUAGGUCGCCGAUAUUUAU [AstrosEXyARgB#5] | 21.5 nM | 43.1 nM | 48.8 nM | 33.2 nM | 35.9 nM | –
UUCACAUGGUAUGAAUAUACAUACAAGAAACGAGGACCGGUACGGCCGCCACUCGUGCCGGAAACAUGAGGAUCACCCAUGUGUU [AK1.2 Exclusion TrypA mod IceBolt] | 21.5 nM | – | 41.2 nM | 41.2 nM | – | –
UUGGGUAUGCGAAGGAGCGGGAAAUAUAUAUAUAUAAUCCUAACAUGAGGAUCACCCAUGUCCCAGGUAGGUCGCGCAUGUUUGG [12.K] | 128 nM | 207 nM | 250 nM | 423 nM | 247 nM | –
UUGGGUUUGCGAAGGAGCGGGUAUGUUUUCUAGUGGAUCCUAACAUGAGGAUCACCCAUGUCCCAGGUAGGUCGCGCGGGUUUGG [12.V] | 89.1 nM | 122 nM | 230 nM | 224 nM | 148 nM | –
UUGGGUUUGUGAAGGAGCGGGAAAUAUAUAUAUAUAAUCCUAACAUGAGGAUCACCCAUGUCCCAGGUAGGUCGCGCGGGUUUGG [12.N] | 46.4 nM | 60.2 nM | 63.5 nM | 65.5 nM | 51.6 nM | –
UUUACAUGAGGAUCACCCAUGUGCCAUGAUACCAGACAUGAAAAUGUCCCUUGGCAGCAUGAGUGAUGCAUCCGAAAGGAUGUUU [Ivanovice] | 97.2 nM | – | 197 nM | – | 52.4 nM | –
UUUGAUAGAACAGAUACCAGCGUGUUAUAAAACAUGAGGAUCACCCAUGUAGUGAUCAAGCGCCCUUGGCAGCUGGUUUGUUAGG [7.I] | 76.4 nM | – | 122 nM | – | 161 nM | –
UUUGGCGGCGAUCUGGGUUUCCCAGAUCGGCGAGGACCGGUACGGCCGCCACUCGUGUUUCUUUGACAUGAGGAUCACCCAUGUA [whbob_SS_trypto A_f4] | 51.5 nM | 62.7 nM | 82.7 nM | 93.9 nM | 42.8 nM | –
UUUGUAAUUGUCUGGUAGAUUUAUUUAUUUCGAGGACCGGUACGGCCGCCACUCGUUAAUUACAUGAGGAUCACCCAUGUUAGCU [JR_ExcTryptoA_Sub008] | 14.1 nM | – | 17.1 nM | 15 nM | – | –

Reference: the supplement of paper PMC9170038
